Experimental data: PMC6765112, “Specificity of MYB interactions relies on motifs in ordered and disordered contexts” (Nucleic Acids Research, 2019)
Entries after “also recorded” stand apart in the source; their conditions may differ. Ends that are not written are not given here. Peptide text beside a SMILES is read from it. * marks the point of attachment. Biotin = O=C1N[C@H]2[C@H](CS[C@H]2CCCCC(=O)*)N1

T1: MYC4 N-terminal domain (L55-N253; MYC4Nt) (Arabidopsis thaliana, UniProt O49687)
T1 construct: MYC4 N-terminal domain (L55-N253; MYC4Nt) using a C-terminal 6×His tag; made in house; host or cells: Escherichia coli BL21(DE3), pET52u plasmid
T1 sequence (O49687 55-253): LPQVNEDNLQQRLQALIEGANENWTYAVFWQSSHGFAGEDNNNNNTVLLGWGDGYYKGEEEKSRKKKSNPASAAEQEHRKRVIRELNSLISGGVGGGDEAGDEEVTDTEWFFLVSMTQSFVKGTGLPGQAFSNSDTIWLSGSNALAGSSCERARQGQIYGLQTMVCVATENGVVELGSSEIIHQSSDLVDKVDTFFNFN


Assays:
[1] = biological target: T1, MYC4 N-terminal domain (L55-N253; MYC4Nt); assay: Bio-layer interferometry, binding of MYC4Nt to immobilised biotinylated MIM peptides; conditions: for binding of MYC4Nt to immobilised peptide (in words): BLI, peptide immobilised on streptavidin biosensor, MYC4Nt dilution series
Method: Single colonies of freshly transformed Escherichia coli BL21(DE3), carrying the pET52u plasmid for expressing MYC4 N-terminal domain (AA55-253; MYC4Nt) with a C-terminal 6×His tag, were inoculated in LB with ampicillin and grown overnight (37°C, 200 RPM). The next day, the culture was diluted to OD600 = 0.2 with cold (4°C) LB with ampicillin and grown at 18°C (100 RPM) in a baffled Erlenmeyer flask until OD600 = 1.0 (∼7.5 h). Protein expression was induced by addition of 0.1 mM IPTG, and the cultures grew for further 18 h at 18°C (100 RPM), before harvesting the cells by centrifugation (4000 g, 20 min), and storing the bacterial pellet at −20°C until protein extraction and purification. For extraction and purification, the bacterial pellet was resuspended in BugBuster Master Mix (Merck Millipore), 2.5 ml per 50 ml bacterial culture, containing 1× ethylenediaminetetraacetic acid-free complete protease inhibitor cocktail (Roche) and 1 mM dithiothreitol (DTT). Lysis proceeded by slow end-over-end rotation at room temperature for 30 min, and the lysate was cleared by centrifugation (20.000 g, 20 min, 4°C). The supernatant was diluted five times with His binding buffer (20 mM sodium phosphate, 500 mM NaCl, 40 mM imidazole, 1 mM DTT, pH 7.4) and filtered through a 0.2-micron filter using a syringe, before applying to a HisTrap HP 5 ml (GE Healthcare) IMAC column charged with Ni(II)Cl2. After washing thoroughly, bound protein was eluted with a linear buffer gradient to elution buffer (His binding buffer with 500 mM imidazole) over 20 column volumes, and 1.9 ml fractions collected in a 96-deepwell plate. Based on absorbance at 280 nm during elution, fractions were selected for analysis by sodium dodecyl sulphate-polyacrylamide gel electrophoresis and those fractions showing only the band of the recombinant protein at 22.7 kDa were pooled and concentrated using 3-kDa cut-off PES membrane ultrafiltration centrifugal tubes (Thermo Scientific™ Pierce). Concentrated protein was centrifuged at 20 000 g, 4°C for 10 min before being dialysed overnight to PBS pH 7.4 with 1 mM DTT. Protein concentration was estimated using the Lambert–Beer law based on absorbance at 280 nm, after blanking with the dialysis buffer (dialysate) and protein was stored in aliquots at −80°C. Aliquots of dialysate were stored at −20°C.
Biotinylated peptides were synthesized by TAG Copenhagen A/S (Copenhagen, Denmark). Lyophilized peptide was resuspended in H2O to a concentration of 400–500 μM and stored in aliquots at −80°C. […] Binding was measured with a BLItz Bio-Layer Interferometer (Pall ForteBio) using the advanced kinetics program in the BLItz Pro 1.2 software. […]

MYC3 = assay: Split-ubiquitin assay, MYC3 as bait; format: cell-based, Arabidopsis thaliana; conditions: yeast, SD-AHLW growth
Method: (§1) The rapamycin-compatible yeast strain NMY51 TOR1-1 Δfpr1 ([35]) was transformed according to DUALhunter™ kit instructions (Dualsystems biotech). Briefly, overnight 2×YPAD cultures were diluted to OD600 = 0.2, and incubated at 30°C, 150 RPM for 4–6 h in 2×YPAD, before harvesting the cells by centrifugation at 700 g for 5 min. The cells were washed with H2O, then 0.1 M LiOAc, before resuspending in 0.1 M LiOAc with 15% glycerol. The competent cells were then aliquoted and stored at −80°C until transformation. For double transformation with bait and prey plasmids, competent cells were thawed on ice, and mixed with transformation mix (240 μl 50% PEG-3350, 35 μl 1 M LiOAc and 25 μl 2 mg/ml ssDNA per transformation) and 200 ng of each plasmid, before being exposed to a 42°C heat shock in a water bath for 45 min. The cells were then chilled on ice for a few minutes, sedimented by centrifugation (3000 g, 1 min), resuspended in sterile H2O, plated on SD-LW plates and grown at 30°C for 2–3 days.
(§2) For drop tests, cells from three individual colonies of each bait/prey combination were grown overnight in liquid SD-LW media. Next day, culture densities were normalized to OD600 = 0.05, dilution series (OD600 = 0.05, OD600 = 0.005, OD600 = 0.0005 and OD600 = 0.00005) were spotted on square plates (SD-LW, SD-AHLW and SD-AHLW+Rapa) and grown for 2 days at 30°C before taking pictures.
(§3) To identify interaction sites mediating specific MYB–MYC complex formation, we selected two TFs from each family. These were MYB28 and MYB29 from MYB subgroup 12, and two of their partner bHLH TFs, MYC3 and MYC4. To define the region mediating the interactions we applied a chemically inducible dimerization split-ubiquitin system ([35]). […] This is used as an in-built positive control for correct expression and functionality of the prey fusion protein and thereby reduces the incidence of false negatives.

MYC4 = assay: Split-ubiquitin assay, MYC4 as bait; format: cell-based, Arabidopsis thaliana; conditions: yeast, SD-AHLW growth
Method: as §1, §2, §3

affinity for MYC4Nt weaker than WT-MIM peptide ([1]; estimated, relative to WT-MIM peptide) | Molecule | binding of MYC4Nt to immobilised peptide (in words) [1] | interaction with MYC3 (in words) (MYC3) | interaction with MYC4 (in words) (MYC4)
~10 fold | CSCC[C@H](NC(=O)[C@H](CO)NC(=O)[C@H](CO)NC(=O)[C@H](C)NC(=O)[C@H](CCCNC(=N)N)NC(=O)[C@H](C)NC(=O)[C@H](C)NC(=O)[C@@H](NC(=O)[C@H](CCCCN)NC(=O)[C@H](CC(N)=O)NC(=O)[C@@H](NC(=O)[C@H](CC(C)C)NC(=O)[C@H](CCCCN)NC(=O)[C@H](CO)NC(=O)[C@@H](NC(=O)[C@H](CO)NC(=O)[C@H](CO)NC(=O)[C@H](CO)NC(=O)[C@H](CCCNC(=N)N)NC(=O)[C@H](CCCCN)NC(=O)[C@H](Cc1ccccc1)NC(=O)CCCC[C@@H]1SC[C@@H]2NC(=O)N[C@@H]21)[C@@H](C)O)C(C)C)C(C)C)C(=O)NCC(=O)O [L190V-MIM] (Biotin-FKRSSSTSKLVNKVAARASSMG-OH) | a strong binding signal, but at higher concentrations of MYC4Nt (>10 μM), than was necessary for the WT-MIM | – | –
– | L190A-MIM: N-terminally biotinylated 22-residue peptide comprising the L190A MIM sequence of MYB29 (F180-G201) (Biotin-FKRSSSTSKLANKVAARASSMG) | Fit cannot converge; also recorded: an extremely weak response was seen only at high (>100 μM) concentrations of MYC4Nt; also recorded: the fit did not converge; also recorded: unable to detect binding | – | –
– | CSCC[C@H](NC(=O)[C@H](CO)NC(=O)[C@H](CO)NC(=O)[C@H](C)NC(=O)[C@H](CCCNC(=N)N)NC(=O)[C@H](C)NC(=O)[C@H](C)NC(=O)[C@@H](NC(=O)[C@H](CCCCN)NC(=O)[C@H](CC(N)=O)NC(=O)[C@H](CC(C)C)NC(=O)[C@H](CC(C)C)NC(=O)[C@H](CCCCN)NC(=O)[C@H](CO)NC(=O)[C@@H](NC(=O)[C@H](CO)NC(=O)[C@H](CO)NC(=O)[C@H](CO)NC(=O)[C@H](CCCNC(=N)N)NC(=O)[C@H](CCCCN)NC(=O)[C@H](Cc1ccccc1)NC(=O)CCCC[C@@H]1SC[C@@H]2NC(=O)N[C@@H]21)[C@@H](C)O)C(C)C)C(=O)NCC(=O)O [WT-MIM] (Biotin-FKRSSSTSKLLNKVAARASSMG-OH) | binding of MYC4Nt was observed even at sub micro molar concentrations; also recorded: stronger binding of the WT-MIM peptide compared to that of the L190V-MIM peptide | – | –
– | L190A: mutated MYB29 (AAs 120-222); MIM sequence - S TS KL ANK VA ARA SS - (protein, left off: NubG and FRB (from the vector pFRB), end not stated, kept) GIDPVTHKPLAYDSNPDEQSQSGSISPKSLPPSSSKNVPEITSSDETPKYDASLSSKKRCFKRSSSTSKLANKVAARASSMGTILGASIEGTLISSTPLSSCL | – | abolished the interaction | abolished the interaction
– | A194L: mutated MYB29 (AAs 120-222); MIM sequence - S TS KL LNK VL ARA SS - (protein, left off: NubG and FRB (from the vector pFRB), end not stated, kept) GIDPVTHKPLAYDSNPDEQSQSGSISPKSLPPSSSKNVPEITSSDETPKYDASLSSKKRCFKRSSSTSKLLNKVLARASSMGTILGASIEGTLISSTPLSSCL | – | abolished the interaction with both MYC3 and MYC4 | abolished the interaction with both MYC3 and MYC4
– | A194G: mutated MYB29 (AAs 120-222); MIM sequence - S TS KL LNK VG A RA SS - (protein, left off: NubG and FRB (from the vector pFRB), end not stated, kept) GIDPVTHKPLAYDSNPDEQSQSGSISPKSLPPSSSKNVPEITSSDETPKYDASLSSKKRCFKRSSSTSKLLNKVGARASSMGTILGASIEGTLISSTPLSSCL | – | did not abolish the interaction | did not abolish the interaction
– | N191A: mutated MYB29 (AAs 120-222); MIM sequence - S TS KL LAK VA ARA SS - (protein, left off: NubG and FRB (from the vector pFRB), end not stated, kept) GIDPVTHKPLAYDSNPDEQSQSGSISPKSLPPSSSKNVPEITSSDETPKYDASLSSKKRCFKRSSSTSKLLAKVAARASSMGTILGASIEGTLISSTPLSSCL | – | abolished the interaction | abolished the interaction
– | WT: MYB29 (AAs 120-222); MIM sequence - S TS KL LNK VA ARA SS - (protein, left off: NubG and FRB (from the vector pFRB), end not stated, kept) MSRKPCCVGEGLKKGAWTAEEDKKLISYIHEHGEGGWRDIPQKAGLKRCGKSCRLRWANYLKPDIKRGEFSYEEEQIIIMLHASRGNKWSVIARHLPKRTDNEIKNYWNTHLKKLLIDKGIDPVTHKPLAYDSNPDEQSQSGSISPKSLPPSSSKNVPEITSSDETPKYDASLSSKKRCFKRSSSTSKLLNKVAARASSMGTILGASIEGTLISSTPLSSCLNDDFSETSQFQMEEFDPFYQSSEHIIDHMKEDISINNSEYDFSQFLEQFSNNEGEEADNTGGGYNQDLLMSDVSSTSVDEDEMMQNITGWSNYLLDHSDFNYDTSQDYDDKNFI | – | interacted with both MYC3 and MYC4 | interacted with both MYC3 and MYC4
